Earlier results, collected in publication PMC7192543.

How the values were obtained:
OmpR (Escherichia coli) = OmpR (Escherichia coli) (UniProt P0AA16); experiment: fluorescence anisotropy
[1] = biological target: OmpR~P (Escherichia coli) (UniProt P0AA16)

Substance | Kd (OmpR (Escherichia coli)) | Kd [1]
EnvZ cytoplasmic domain (EnvZc) (from UniProt P0AEJ4) | 425 nM | –
EnvZ (from UniProt P0AEJ4) | – | > 5000 nM
